T1: FANCI (human, UniProt Q9NVI1 1-1328)
T1 sequence: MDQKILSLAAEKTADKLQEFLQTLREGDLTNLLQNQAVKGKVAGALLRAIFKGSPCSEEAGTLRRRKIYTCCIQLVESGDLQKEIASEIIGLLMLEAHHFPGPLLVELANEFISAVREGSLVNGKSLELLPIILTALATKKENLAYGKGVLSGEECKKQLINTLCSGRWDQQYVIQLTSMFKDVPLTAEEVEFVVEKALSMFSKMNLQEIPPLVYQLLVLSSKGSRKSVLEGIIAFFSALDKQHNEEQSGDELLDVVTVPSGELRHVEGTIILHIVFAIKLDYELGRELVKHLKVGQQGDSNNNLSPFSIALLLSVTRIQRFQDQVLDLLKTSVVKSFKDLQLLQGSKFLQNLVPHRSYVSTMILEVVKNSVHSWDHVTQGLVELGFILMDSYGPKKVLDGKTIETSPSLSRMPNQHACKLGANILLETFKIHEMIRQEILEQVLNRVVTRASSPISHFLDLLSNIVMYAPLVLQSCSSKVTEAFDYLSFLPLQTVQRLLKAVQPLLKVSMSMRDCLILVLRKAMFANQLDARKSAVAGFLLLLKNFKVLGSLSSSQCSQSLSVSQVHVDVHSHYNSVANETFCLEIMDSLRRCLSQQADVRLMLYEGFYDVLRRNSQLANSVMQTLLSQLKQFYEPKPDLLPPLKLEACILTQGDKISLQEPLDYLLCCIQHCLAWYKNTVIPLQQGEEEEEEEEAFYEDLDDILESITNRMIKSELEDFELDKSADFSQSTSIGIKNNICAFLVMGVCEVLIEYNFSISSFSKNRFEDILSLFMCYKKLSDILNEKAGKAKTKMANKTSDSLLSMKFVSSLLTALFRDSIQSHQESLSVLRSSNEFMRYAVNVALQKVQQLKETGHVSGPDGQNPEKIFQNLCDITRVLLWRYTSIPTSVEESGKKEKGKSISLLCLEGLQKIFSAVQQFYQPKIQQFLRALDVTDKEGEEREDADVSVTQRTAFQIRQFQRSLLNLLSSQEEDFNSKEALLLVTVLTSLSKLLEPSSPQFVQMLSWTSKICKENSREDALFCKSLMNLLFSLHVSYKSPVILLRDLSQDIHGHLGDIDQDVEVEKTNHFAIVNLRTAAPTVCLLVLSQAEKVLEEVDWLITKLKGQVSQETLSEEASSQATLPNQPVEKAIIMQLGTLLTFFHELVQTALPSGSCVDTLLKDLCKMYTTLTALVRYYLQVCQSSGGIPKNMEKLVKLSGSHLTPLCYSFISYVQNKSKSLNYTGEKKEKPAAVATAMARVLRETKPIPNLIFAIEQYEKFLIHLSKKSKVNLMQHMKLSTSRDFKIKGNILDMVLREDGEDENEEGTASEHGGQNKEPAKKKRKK

B1: FANCB-FAAP100 heterodimer (complex, human)
chain 1: MTSKQAMSSNEQERLLCYNGEVLVFQLSKGNFADKEPTKTPILHVRRMVFDRGTKVFVQKSTGFFTIKEENSHLKIMCCNCVSDFRTGINLPYIVIEKNKKNNVFEYFLLILHSTNKFEMRLSFKLGYEMKDGLRVLNGPLILWRHVKAFFFISSQTGKVVSVSGNFSSIQWAGEIENLGMVLLGLKECCLSEEECTQEPSKSDYAIWNTKFCVYSLESQEVLSDIYIIPPAYSSVVTYVHICATEIIKNQLRISLIALTRKNQLISFQNGTPKNVCQLPFGDPCAVQLMDSGGGNLFFVVSFISNNACAVWKESFQVAAKWEKLSLVLIDDFIGSGTEQVLLLFKDSLNSDCLTSFKITDLGKINYSSEPSDCNEDDLFEDKQENRYLVVPPLETGLKVCFSSFRELRQHLLLKEKIISKSYKALINLVQGKDDNTSSAEEKECLVPLCGEEENSVHILDEKLSDNFQDSEQLVEKIWYRVIDDSLVVGVKTTSSLKLSLNDVTLSLLMDQAHDSRFRLLKCQNRVIKLSTNPFPAPYLMPCEIGLEAKRVTLTPDSKKEESFVCEHPSKKECVQIITAVTSLSPLLTFSKFCCTVLLQIMERESGNCPKDRYVVCGRVFLSLEDLSTGKYLLTFPKKKPIEHMEDLFALLAAFHKSCFQITSPGYALNSMKVWLLEHMKCEIIKEFPEVYFCERPGSFYGTLFTWKQRTPFEGILIIYSRNQTVMFQCLHNLIRILPINCFLKNLKSGSENFLIDNMAFTLEKELVTLSSLSSAIAKHESNFMQRCEVSKGKSSVVAAALSDRRENIHPYRKELQREKKKMLQTNLKVSGALYREITLKVAEVQLKSDFAAQKLSNL
chain 2: MAGAAPRVRYLAGFCCPLGGLAAGKPRVLCHEAEVFLSTGSELVYVYDQEGGLLTAAFRFPDQVWHLELLAPRRLLYALCARRGLYCLSLDHPGRSRSTSQDDRDSEDGDQPSPVIPVDPDACILPDAALCAFTLLDSVLVTLVQGPARWKMQLFEQPCPGEDPRPGGQIGEVELSSYTPPAGVPGKPAAPHFLPVLCSVSPSGSRVPHDLLGGSGGFTLEDALFGLLFGADATLLQSPVVLCGLPDGQLCCVILKALVTSRSAPGDPNALVKILHHLEEPVIFIGALKTEPQAAEAAENFLPDEDVHCDCLVAFGHHGRMLAIKASWDESGKLVPELREYCLPGPVLCAACGGGGRVYHSTPSDLCVVDLSRGSTPLGPEQPEEGPGGLPPMLCPASLNICSVVSLSASPRTHEGGTKLLALSAKGRLMTCSLDLDSEMPGPARMTTESAGQKIKELLSGIGNISERVSFLKKAVDQRNKALTSLNEAMNVSCALLSSGTGPRPISCTTSTTWSRLQTQDVLMATCVLENSSSFSLDQGWTLCIQVLTSSCALDLDSACSAITYTIPVDQLGPGARREVTLPLGPGENGGLDLPVTVSCTLFYSLREVVGGALAPSDSEDPFLDECPSDVLPEQEGVCLPLSRHTVDMLQCLRFPGLAPPHTRAPSPLGPTRDPVATFLETCREPGSQPAGPASLRAEYLPPSVASIKVSAELLRAALKDGHSGVPLCCATLQWLLAENAAVDVVRARALSSIQGVAPDGANVHLIVREVAMTDLCPAGPIQAVEIQVESSSLADICRAHHAVVGRMQTMVTEQATQGSSAPDLRVQYLRQIHANHETLLREVQTLRDRLCTEDEASSCATAQRLLQVYRQLRHPSLILL
B2: FANCA (natural protein, human, UniProt O15360-1 1-1455, looked up)
chain: MSDSWVPNSASGQDPGGRRRAWAELLAGRVKREKYNPERAQKLKESAVRLLRSHQDLNALLLEVEGPLCKKLSLSKVIDCDSSEAYANHSSSFIGSALQDQASRLGVPVGILSAGMVASSVGQICTAPAETSHPVLLTVEQRKKLSSLLEFAQYLLAHSMFSRLSFCQELWKIQSSLLLEAVWHLHVQGIVSLQELLESHPDMHAVGSWLFRNLCCLCEQMEASCQHADVARAMLSDFVQMFVLRGFQKNSDLRRTVEPEKMPQVTVDVLQRMLIFALDALAAGVQEESSTHKIVRCWFGVFSGHTLGSVISTDPLKRFFSHTLTQILTHSPVLKASDAVQMQREWSFARTHPLLTSLYRRLFVMLSAEELVGHLQEVLETQEVHWQRVLSFVSALVVCFPEAQQLLEDWVARLMAQAFESCQLDSMVTAFLVVRQAALEGPSAFLSYADWFKASFGSTRGYHGCSKKALVFLFTFLSELVPFESPRYLQVHILHPPLVPGKYRSLLTDYISLAKTRLADLKVSIENMGLYEDLSSAGDITEPHSQALQDVEKAIMVFEHTGNIPVTVMEASIFRRPYYVSHFLPALLTPRVLPKVPDSRVAFIESLKRADKIPPSLYSTYCQACSAAEEKPEDAALGVRAEPNSAEEPLGQLTAALGELRASMTDPSQRDVISAQVAVISERLRAVLGHNEDDSSVEISKIQLSINTPRLEPREHMAVDLLLTSFCQNLMAASSVAPPERQGPWAALFVRTMCGRVLPAVLTRLCQLLRHQGPSLSAPHVLGLAALAVHLGESRSALPEVDVGPPAPGAGLPVPALFDSLLTCRTRDSLFFCLKFCTAAISYSLCKFSSQSRDTLCSCLSPGLIKKFQFLMFRLFSEARQPLSEEDVASLSWRPLHLPSADWQRAALSLWTHRTFREVLKEEDVHLTYQDWLHLELEIQPEADALSDTERQDFHQWAIHEHFLPESSASGGCDGDLQAACTILVNALMDFHQSSRSYDHSENSDLVFGGRTGNEDIISRLQEMVADLELQQDLIVPLGHTPSQEHFLFEIFRRRLQALTSGWSVAASLQRQRELLMYKRILLRLPSSVLCGSSFQAEQPITARCEQFFHLVNSEMRNFCSHGGALTQDITAHFFRGLLNACLRSRDPSLMVDFILAKCQTKCPLILTSALVWWPSLEPVLLCRWRRHCQSPLPRELQKLQEGRQFASDFLSPEAASPAPNPDWLSAAALHFAIQQVREENIRKQLKKLDCEREELLVFLFFFSLMGLLSSHLTSNSTTDLPKAFHVCAAILECLEKRKISWLALFQLTESDLRLGRLLLRVAPDQHTRLLPFAFYSLLSYFHEDAAIREEAFLHVAVDMYLKLVQLFVAGDTSTVSPPAGRSLELKGQGNPVELITKARLFLLQLIPRCPKKSFSHVAELLADRGDCDPEVSAALQSRQQAAPDADLSQEPHLF
B3: FANCL (enzyme, human, UniProt Q9NW38-1 1-375, looked up)
chain: MAVTEASLLRQCPLLLPQNRSKTVYEGFISAQGRDFHLRIVLPEDLQLKNARLLCSWQLRTILSGYHRIVQQRMQHSPDLMSFMMELKMLLEVALKNRQELYALPPPPQFYSSLIEEIGTLGWDKLVYADTCFSTIKLKAEDASGREHLITLKLKAKYPAESPDYFVDFPVPFCASWTPQSSLISIYSQFLAAIESLKAFWDVMDEIDEKTWVLEPEKPPRSATARRIALGNNVSINIEVDPRHPTMLPECFFLGADHVVKPLGIKLSRNIHLWDPENSVLQNLKDVLEIDFPARAILEKSDFTMDCGICYAYQLDGTIPDQVCDNSQCGQPFHQICLYEWLRGLLTSRQSFNIIFGECPYCSKPITLKMSGRKH
B4: UBE2T (enzyme, human)
chain: MQRASRLKRELHMLATEPPPGITCWQDKDQMDDLRAQILGGANTPYEKGVFKLEVIIPERYPFEPPQIRFLTPIYHPNIDSAGRICLDVLKLPPKGAWRPSLNIATVLTSIQLLMSEPNPDDPLMADISSEFKYNKPAFLKNARQWTEKHARQKQKADEEEMLDNLPEAGDSRVHNSTQKRKASQLVGIEKKFHPDV

Columns and labels:
Test in all cases: cryo-EM structure
[1] = target: FA Core complex (human | human (endogenous in HEK-293F)) (UniProt O15360)
[2] = target: the molecule itself
[3] = target: T1, FANCI
[4] = target: B3

| Molecule | stoichiometry N [2] | binding result [3] | further results |
| --- | --- | --- | --- |
| FANCI-FANCD2 (ID) complex (from UniProt Q9NVI1 1-1328; Q9BXW9 1-1451) |  |  | percent of Core particles with bound ID [1]: 63% |
| B1 | 2 |  |  |
| B2 | 2 |  |  |
| B3 |  | binds |  |
| B4 |  | binds | binding result [4]: binds |
